Assay results published in patent US20230391872A1 (ANAPTYSBIO, published 2023).

Assays:
[1] = target: T1, human BTLA ECD-his (monomeric human BTLA-his) (human, UniProt Q7Z6A9 31-157); test: Kinetic Exclusion Assay (KinExA 3000), solution phase, 6G3 IgG4 APE10840.04 at 100 pM, human BTLA ECD-his titrated
T1 construct: extracellular domain; also called human BTLA extracellular domain
T1 sequence (looked up): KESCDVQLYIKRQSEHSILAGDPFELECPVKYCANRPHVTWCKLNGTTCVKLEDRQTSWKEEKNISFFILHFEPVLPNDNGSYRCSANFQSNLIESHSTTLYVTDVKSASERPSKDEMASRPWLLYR
Procedure: Solution-based affinity measurements of 6G3 IgG4 (APE10840.04 (H Chain SEQ ID NO: 144, L Chain SEQ ID NO: 174)) binding to BTLA were determined on a KinExA 3000 (Sapidyne Instruments). Azlactone beads (ThermoFisher Scientific) were coated with human BTLA ECD-his (30 μg/ml) or cynomolgus monkey BTLA ECD-his (20 μg/ml) in 50 mM Na2CO3 for 2 hours at room temperature and blocked with 10 mg/ml BSA. 6G3 IgG4 APE10840.04 concentration was kept constant at 100 pM for binding in both human and cynomolgus monkey BTLA experiments. Human or cynomolgus monkey BTLA ECD-his was added at 25° C. in 2.5-fold dilutions from 1000 nM to 68 fM. Sample sets were equilibrated at 4° C. for 72 hours and brought to room temperature for 6 hours before capturing free antibody with BTLA-coupled Azlactone beads. […] Maximum and background signals were determined on samples with 6G3 only and buffer only, respectively. Data were analyzed using KinExA Pro Software 3.2.6.

[2] = target: T2, cynomolgus monkey BTLA on cells (stably transfected 293c18 clone 1G5); cynomolgus peripheral blood T and B … (cynomolgus monkey, UniProt A0A2K5W7M7 31-289); test: flow cytometry, AF647-labeled 6G3 IgG4 on cynomolgus monkey peripheral blood CD3+ T cells; not saturated at 100 nM
T2 construct: whole, on cells; also called cynomolgus monkey BTLA 293c18 cells
T2 sequence: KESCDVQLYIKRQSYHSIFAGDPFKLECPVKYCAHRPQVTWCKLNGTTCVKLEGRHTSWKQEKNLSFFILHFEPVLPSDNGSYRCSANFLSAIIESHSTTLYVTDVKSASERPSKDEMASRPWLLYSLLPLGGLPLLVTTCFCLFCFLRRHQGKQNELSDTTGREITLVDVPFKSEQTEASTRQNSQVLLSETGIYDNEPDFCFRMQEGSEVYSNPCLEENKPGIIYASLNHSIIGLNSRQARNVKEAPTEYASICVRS
Procedure: Blood was then aliquoted into wells and incubated with the indicated concentrations of 6G3-AF647 (APE13766.02), or APC-Mouse Anti-Human CD272 (BTLA) reference antibody (clone J168-540; BD Biosciences) for minutes at room temperature, in the dark. Following incubation, red blood cells were lysed for minutes by addition of 2.0 ml diluted BD Pharm Lyse lysing solution (BD Biosciences), samples centrifuged at 200×g for 5 minutes, washed in FACS Buffer [Dulbecco's PBS, no calcium, no magnesium (Gibco/ThermoFisher Scientific), 25 mM HEPES, pH 7.2, 0.1% BSA, sodium azide] and fixed in 4% paraformaldehyde (200 μl/sample) for 10 minutes at room temperature. Samples were washed twice in FACS Buffer and analyzed for fluorescence on a NovoCyte Quanteon flow cytometer (ACEA Biosciences, Inc.). Data were analyzed using NovoExpress Software (ACEA Biosciences, Inc.). Mean fluorescence intensity (MFI) values were graphed and fit with nonlinear regression analyses in GraphPad Prism (GraphPad Software, Inc.). MFI values for each anti-BTLA antibody on total CD3+cells are shown in FIG. 5A; MFI values for each anti-BTLA antibody on total CD20+cells are shown in FIG. 5B. […] Binding of each anti-BTLA antibody to CD3⁻ cells in FIG. 5C and FIG. 5D (green cells in the bottom quadrants of each panel) reflects the binding to CD20⁺ B cells. […]

[3] = target: T3, cynomolgus monkey BTLA ECD-his (monomeric cynomolgus monkey BTLA-his) (cynomolgus monkey, UniProt A0A2K5W7M7 31-157); test: SPR (Biacore T200), antibody captured on anti-human IgG chip, monomeric BTLA-his flowed at 60, 20, 6.7 and 2.2 nM, 1:1 binding model, 25 C [lower right panel (Cyno BTLA]
T3 construct: extracellular domain; also called cynomolgus monkey BTLA extracellular domain
T3 sequence: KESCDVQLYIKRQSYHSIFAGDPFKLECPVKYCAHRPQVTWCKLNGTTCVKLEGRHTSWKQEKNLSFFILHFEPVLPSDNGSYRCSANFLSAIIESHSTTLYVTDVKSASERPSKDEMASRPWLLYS
Procedure: Surface plasmon resonance (SPR) analyses were carried out using a Biacore T200 (GE Healthcare Life Sciences). Kinetic constants were determined using a 1:1 binding model in the Biacore T200 Evaluation Software to calculate on- and off-rates (kₐ and kd, respectively), and dissociation constants as a measure of overall affinity (KD). Anti-human IgG (GE Healthcare Life Sciences) was immobilized on a CMS chip using EDC-activated amine coupling chemistry (420 seconds contact at a flow rate of 10 μl/min). Antibodies (APE10585.04 6G3 IgG1 and APE10840.05 6G3 IgG4), each at 0.5 μg/m1) were captured in a 60 second contact with the flow cell using a flow rate of 10 μl/min. Monomeric human BTLA-his or cynomolgus monkey BTLA-his at 60 nM, 20 nM, 6.7 nM and 2.2 nM concentrations was flowed over captured antibody (480 seconds association, 1800 seconds dissociation). Runs were at 25° C. and used buffer containing 10 mM HEPES, pH 7.6, 150 mM NaCl, 3 mM EDTA, 0.05% polysorbate 20 (HBS-EP+, pH 7.6; Teknova) for the mobile phase and all dilutions. At the end of each cycle, bound antigen was removed by regeneration with two successive exposures (60 seconds and 90 seconds) to 3 M MgCl2 (30 μl/min). Sensorgrams and binding constants corresponding to the experiment are shown in FIG. 1 (human BTLA) and FIG. 1 (cynomolgus monkey BTLA). Antibody capture levels in resonance units (RU) are listed at the right side of each panel.

B1: 6G3 IgG4 anti-BTLA antibody (APE10840 / APE12839 / APE13308) (antibody, V domains shown)
VH: QVQLVQSGAEVKKPGSSVKVSCKASGYVFSTSWMNWVRQAPGQGLEWMGRIYPGDADTNYVGKFKGRVTITADKSTTTAYMELSSLRSEDTAVYFCAKSGTFNFGNYRWYFDVWGKGTTVTVSS
VL: AIQLTQSPSSLSASVGDRVTITCRVSENIYSHLAWYQQKPGKAPKLLIYAATNLALGVPSRFSGSGSGTDYTLTISSLQPEDFATYYCQLFWGPPLTFGGGTKVEIKR
notes: Humanized antibody from a mouse hybridoma, tested as human IgG4 (detected with anti-human kappa); Some assays used labelled lots (DyLight 650, AF647, biotin, DyL488); also called 6G3 antibody; APE10840.03
Which results are given for B1?
Kd [1]: ~0.41 nM; EC50 [2]: ~3.4 nM; Kd [3]: 11.2 nM; koff [3]: 0.00393 s⁻¹; kon [3]: 351000 M⁻¹ s⁻¹
